Source: the RNAGym collection of RNA variant scans (doi:10.1073/pnas.2313332121)

B1: TPR t1 (parent)
chain: GACCAAUCUGCCCUCAGAGCUCGAGAACAUCUUCGGAUGCAGAGGAGGCAGGCUUCGGUGGCGCGAUAGCGCCAACGUCCUCAACCUCCAAUGCAUCCCACCACAUGAUGAUGCCUGAAGAGCCUUGGUUUUUUG

Variants of: B1
Test: polymerase ribozyme fitness, log enrichment relative to wild type (log ratio); higher = more active; in vitro selection for triplet polymerase activity
Method in brief: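 Libraries of mutants in each subunit of a heterodimeric triplet polymerase ribozyme were generated by PCR and transcribed. In triplicate, each went through one in vitro selection round: annealing with biotinylated primer, partner subunit and triplets; frozen incubation at −7 °C; gel excision of extended constructs; streptavidin-bead capture; RT-PCR. Fitness, taken from Illumina sequencing of input and output libraries, is the logarithm of a genotype's enrichment over wild-type enrichment, averaged across replicates with inverse-variance weights. The logarithm is base 2, and genotypes needed ≥10 input reads and ≥1 read per output to be kept.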

Variant	polymerase ribozyme fitness (log ratio)
U54G C80U U133A	-0.863
U54G C82A A91C C115G	-4.39
C53U U81C C88A	-1.58
C53U C79G U81C	-1.9
G52U G93C G120A G135C	-1.15
U55A C62U C85A A100U C102U	-5.11
C53A G122U C123A	0.198
C53U G57U C62G	-2.6
C53A U81G A90G	0.427
U55G A74U U81A C85G G122A	-4.4
C53A A66G C123U	0.367
C53G G127U	-1.46
C53G C102A	-2.97
C56A A100C	-1.19
C53A C88U C101A	0.356
U54A C56U	-0.589
C56A C72A	-0.579
U55C C62U C98A	-6.18
C53A U92G A95U	-2.44
C53U C72G C88U A105G	-2.32
C56A C72G A90G	-1.05
C53A U87A A90G C97G U112A	-3.25
C53A G63A	-0.638
C53A G63U	-1.77

Variant	polymerase ribozyme fitness (log ratio)
C53A U78C C104A	-1.25
C53G A68G U87G	-4.16
C53A A74U A95C G120A	-0.291
G52U C86G C89G G113C C114U A118G	-4.62
C56A C64U C124U G128A	-1.71
C56A C64U	-0.751
C53U G113C	-1.77
C53G G61A C88A A111U U112G C124A	-1
C53U C62G C70U G110A	-6.1
C53G G120A	0.668
C53G G71C C72U	-0.79
U54G G93A A111U	-3.35
U55A C85A U112G	-2.37
U54A A119G G135U	0.414
U55C U59G C114U	-1.28
U55G G117U	-2.73
G52U U59A G113C A119G	-1.67
U55A C88U	0.678
C53A C56G G71C G127C	-1.96
U54C C70U	-0.253
U54G A95U	-0.988
U54C G69U G127C	-0.892
U55C A66U A75U	-0.518
U54C G122A G128U	-3.12

Variant	polymerase ribozyme fitness (log ratio)
U54G C79A	-2.11
C53U C73A	-0.168
C53U C73U	-0.178
U55A U59C U78G C82A G110A	-2.6
U55A C73A	0.5
C53G U125A	-2.2
C53G C72G C88A	-0.997
C53A C73A U78G G110U	-0.702
C53A G69U G120C	1.96
C56A A90C	-1.57
U54A C88G	-1.9
C53G A119U G127C	-1.2
C53A C99A G117C A118G	-7.29
U54A C79A G93U C114U G117A	-6.48
C53U G69A A91U G110A G113U G128U	-5.88
G52U C70U	-1.49
C53U C56G C101A A121C G135C	0.621
C53G G77A C102U G120C U125A	-2.26
U54C G77U C79A C88U	-1.68
C53U C82A A121C	1.33
U54G C102U	-1.84
C53U C89A C115U A119G	0.658
C53U C64G C73U A90C U112G	-7.28
C53U U59C	-0.508

Variant	polymerase ribozyme fitness (log ratio)
U55A C64A C115G G128A	-6.49
C53A C85A G117A U125G	-3.17
C53A C85A G135U	-2.53
U54A A95U	-0.632
U54A C101U G120A	0.15
C53U G69A	-2.64
U55G A121C	0.81
C53G C115U	-1.56
U55C G71C C104U	-0.984
G52U C53U C62U C85U U129A	-3.42
G52U G69U A91C C104A	-2.27
C53U U81A	-1.63
U54G A75U C89U	-0.98
U54A C70U G113U C114G A121C	-2.74
G52U G57C C97G C114A A119U	-6.02
C53G G122A	-1.37
U54A G69U	-0.707
U54A G69C	-1.12
G52U U133G	-1.42
U54C C73G A121U	1.17
C53U C85U	-1.78
C53G C70U U125C	-3.18
U55G C82U A100U G113U	-4.11
U55C C123A	-0.354

Variant	polymerase ribozyme fitness (log ratio)
U55C C88U	-0.394
C53U C72A A90U C101A	-2.92
G52U C64G C94U U106A A119G	-6.74
C53G U81A U131G	-0.825
C53G G61U G77U C101G G120C	-3.46
U55C C62U C89A U109A	-6.44
C53U C72G G113C U129A	-4.76
C53A C72U C104U G113C	-2.1
C53A C72U C98U C123U	-3.81
C53A C94U C104U U112C	1.78
U55C C72G C79U	0.018
C53U A103U U116C G117U A118C	-5.82
C53U G57C U78C C114A C123U	-3.58
U55C C82G A91C A105U C123G	-6.04
C53G G60U C104A C114U	-5.11
C53G A119U C123A	-1.16
U54G C80G C123U	-4.41
U55A	-0.12
U55C	-0.521
U55G	0.0266
U54A G61U C62U U96G	-6.42
U54A C64U C72U C86A	-0.948
C53U U54G G117A	-0.796
C53G C101A	-1.03

Variant	polymerase ribozyme fitness (log ratio)
G52U G57U G61U A111U	-6.65
C53U G58U	-0.0375
U54C C72U	-0.0207
C53U U78C	-0.767
C53U U78G	-0.118
C56A A83G A84C G135C	-0.872
G52U G60U C73U U96G A121G	-0.386
C53U U78C G120C	-0.0303
C53A C86U	-0.0407
U55G A100C	-0.346
U55G C56U C88G	-2.34
U54G C56U A121G C124A	-4.56
C53A C115U A119U	0.429
U54G C101G C115G U116A	-6.37
U54G G60U	-3.4
G52U U54A G63A C115A	-0.839
C53A C72U C86U G110C	-3.78
U54G G60C U112A G117C	-5
C53A C76A C88A U92A	-5.92
C53U U59C U96A	-1.65
U55C G57U A66C	0.353
C53A A66U C72U C123U	0.234
C53A G69C G77U U96A G117A	-5.87
C53A G71C C86A C124A	-2.54

Variant	polymerase ribozyme fitness (log ratio)
C53A C56G C70U U132A	-0.0503
U54C A103G	-4.75
U55C C56U G69C C85U	-4.97
U54A G127C	-0.488
C53A C70U	0.0165
C56A A83G	-1.6
U54A C64U A95C	-0.888
G52U C88G A118U	-0.0981
U54C C94A G113U	-3.83
C53G C70G	-2.85
G52U G60U	-0.578
C53U C64A C72U A95C A105C G122U C123G	-6.4
C53A C88A	-0.22
G52U G61C U131A	-1.22
C53G C73A A105C	-3.2
C53A G58A C89G C102U A103U C123G	-5.91
U54A G113A C123U	-2.23
C53U C124A G128C	-0.772
U54A C72U C97U	-1.24
U55A C56A	-0.0197
C53G G69U	-0.127
C53U C79A C85U C88U	-2.08
C53A G61C U78C C85U G93A	-0.976
